Blank lines part the entries; values can stand above or below the binder they belong to.
How the values were obtained:
Test in all cases: cell-based or functional assay
[1] = target: T1, full-length human APLNR (hAPLNR) (human, UniProt P35414 1-380)
T1 sequence: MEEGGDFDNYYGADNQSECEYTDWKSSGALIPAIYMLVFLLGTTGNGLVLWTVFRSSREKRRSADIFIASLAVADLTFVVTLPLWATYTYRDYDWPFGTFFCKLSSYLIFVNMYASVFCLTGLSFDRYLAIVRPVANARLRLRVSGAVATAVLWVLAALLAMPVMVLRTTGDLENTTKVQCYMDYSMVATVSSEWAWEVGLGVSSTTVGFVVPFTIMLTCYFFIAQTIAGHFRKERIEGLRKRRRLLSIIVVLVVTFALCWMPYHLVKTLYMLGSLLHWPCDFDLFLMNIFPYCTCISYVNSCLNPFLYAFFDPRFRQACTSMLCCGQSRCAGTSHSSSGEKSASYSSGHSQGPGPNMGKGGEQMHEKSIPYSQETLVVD

[2] = target: T1, full-length human APLNR (hAPLNR); remark: listed apart in the source
[3] = target: T1, full-length human APLNR (hAPLNR); remark: listed apart in the source
[4] = target: T2, human Apelin receptor (hAPLNR) of PathHunter eXpress AGTRL1 CHO-K1 beta-Arrestin cells (human, UniProt P35414 1-380)
T2 sequence: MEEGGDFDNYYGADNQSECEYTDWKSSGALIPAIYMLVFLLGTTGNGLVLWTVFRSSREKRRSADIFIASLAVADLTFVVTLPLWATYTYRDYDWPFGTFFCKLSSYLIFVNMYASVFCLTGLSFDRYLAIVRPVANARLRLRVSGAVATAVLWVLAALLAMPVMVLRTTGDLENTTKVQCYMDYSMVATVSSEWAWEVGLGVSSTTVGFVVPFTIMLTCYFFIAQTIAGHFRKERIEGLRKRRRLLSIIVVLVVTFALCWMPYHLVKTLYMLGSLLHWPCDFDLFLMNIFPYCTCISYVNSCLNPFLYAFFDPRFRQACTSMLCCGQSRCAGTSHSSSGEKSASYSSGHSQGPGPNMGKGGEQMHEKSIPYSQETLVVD

[5] = target: T1, full-length human APLNR (hAPLNR); remark: listed apart in the source

B2: H2aM9221N (antibody, mouse IgG2a, V domains shown)
VH: EVQLVESGGGLVQPGGSLRLSCVASGFTFNNYWMSWVRQAPGKGLEWVANIKQDGSERYYVDSVKGRFTISRGDAKNSLYLQMKSLRAEDTAVYFCARDRFGYSFYDKGVRYYYGMDVWGQGTTVTVSS
VL: DIQMTQSPSSLSASVGDRVTITCRASQGIRNDLGWYQQRPGKAPKRLIYAASSLQTGVPSRFSGSGSGTEFTLTISGLQPEDFATYYCLQHNSYPRTFGQGTKVEIR
% Activation at 500 nM mAb (at 7.5 uM Forskolin), CRE-luc [2]: 64%
% Inhibition at 100 nM antibody, in the presence of 100 pM Apelin (at 5 uM Forskolin), CRE-luc [3]: 28%
IC50 [M], in the presence of 100 pM Apelin (at 5 uM Forskolin), CRE-luc [3]: 5e-09 M

B3: H2aM9229N (antibody, mouse IgG2a, V domains shown)
VH: EVQLVESGGGLVQPGGSLRLSCVASGFTFNNYWMSWVRQAPGKGLEWVANIKQDGSERYYVDSVKGRFTISRGDAKNSLYLQMKSLRAEDTAVYFCARDRFGYSFYDKGVRYYYGMDVWGQGTTVTVSS
VL: DIQMTQSPSSLSASVGDRVTITCRASQGIRNDLGWYQQRPGKAPKRLIYAASSLQTGVPSRFSGSGSGTEFTLTISGLQPDDFATYYCLQHNSYPRTFGQGTKVEIR
% Activation at 500 nM mAb (at 7.5 uM Forskolin), CRE-luc [2]: 66%
% Inhibition at 100 nM antibody, in the presence of 100 pM Apelin (at 5 uM Forskolin), CRE-luc [3]: 38%
IC50 [M], in the presence of 100 pM Apelin (at 5 uM Forskolin), CRE-luc [3]: 3.5e-09 M

B4: H2aM9223N (antibody, mouse IgG2a, V domains shown)
VH: EVQLVESGGGLVQPGGSLRLSCAASGFTFSSFWMSWVRQVPGKGLEWVANIKQDGSEKYYVDSVKGRFTISRDNAKNSLYLQMNSLRAEDTAVYYCARDRFGYSVYDKGVRYYYGMDVWGQGTTVTVSS
VL: DIQMTQSPSSLSVSVGDRVTITCRASQGIRNDLGWYQQKPGKAPKRLIYAASSLQSGVPSRFSGSGSGTEFTLTISGLQSEDFATYYCLQHKSYPRTFGQGTKVEIK
% Activation at 500 nM mAb (at 7.5 uM Forskolin), CRE-luc [2]: 39%
% Inhibition at 100 nM antibody, in the presence of 100 pM Apelin (at 5 uM Forskolin), CRE-luc [3]: 33%
IC50 [M], in the presence of 100 pM Apelin (at 5 uM Forskolin), CRE-luc [3]: 1.2e-08 M

B5: H2aM9226N (antibody, mouse IgG2a, V domains shown)
VH: EVQLVESGGGLVQPGGSLRLSCAASGFTFSSFWMSWVRQVPGKGLEWVANIKQDGSEKYSVDSVKGRFTISRDNAKNSLYLQMNSLRAEDTAVYYCARDRFGYSFYDKGVRYYYGMDVWGQGTTVTVSS
VL: DIQMTQSPSSLSVSVGDRVTITCRASQGIRNDLGWYQQKPGKAPKRLIYATSSLQSGVPSRFSGSGSGTEFTLTISGLQPEDFATYYCLQHNSYPRTFGQGTKVEIK
% Activation at 500 nM mAb (at 7.5 uM Forskolin), CRE-luc [2]: 61%
% Inhibition at 100 nM antibody, in the presence of 100 pM Apelin (at 5 uM Forskolin), CRE-luc [3]: 30%
IC50 [M], in the presence of 100 pM Apelin (at 5 uM Forskolin), CRE-luc [3]: 2.9e-09 M

B8: H4H9209N-APN10-(G4S)3 (antibody, V domains shown)
VH: EVQLLESGGGLVQPGGSLRLSCAASGFTFSNYAMNWVRQAPGRGLEWVSAIHYDGSNSYYADSVKGRFTISRDNSKNTLYLQMNSLRAEDTAIYYCAILSRVYWGQGTLVTVSS
VL: DIQMTQSPSSLSASVGDRVTITCRASQGINNYLAWFQQKPGKAPKSLIYATSSLQSGVPSKFSGSGSGTDFTLTISSLQPEDFATYYCQQYNSYPLTFGGGTKVEIK
% Activation at 100 nM mAb (7.5 uM Forskolin), CRE-luc [1]: 38%
EC50 [M] (7.5 uM Forskolin), CRE-luc [1]: 1.2e-09 M
% Activation at 500 nM antibody or Apelin-antibody fusion, PathHunter beta-Arrestin assay [4]: 2%
EC50 [M], PathHunter beta-Arrestin assay [4]: 4e-09 M

B9: H4H9209N-APN11+S-(G4S)3 (antibody, V domains shown)
VH: EVQLLESGGGLVQPGGSLRLSCAASGFTFSNYAMNWVRQAPGRGLEWVSAIHYDGSNSYYADSVKGRFTISRDNSKNTLYLQMNSLRAEDTAIYYCAILSRVYWGQGTLVTVSS
VL: DIQMTQSPSSLSASVGDRVTITCRASQGINNYLAWFQQKPGKAPKSLIYATSSLQSGVPSKFSGSGSGTDFTLTISSLQPEDFATYYCQQYNSYPLTFGGGTKVEIK
EC50 [M] (7.5 uM Forskolin), CRE-luc [1]: 1.1e-10 M
% Activation at 500 nM antibody or Apelin-antibody fusion, PathHunter beta-Arrestin assay [4]: 25%

B10: H4H9209N-APN11-(G4S)3 (antibody, V domains shown)
VH: EVQLLESGGGLVQPGGSLRLSCAASGFTFSNYAMNWVRQAPGRGLEWVSAIHYDGSNSYYADSVKGRFTISRDNSKNTLYLQMNSLRAEDTAIYYCAILSRVYWGQGTLVTVSS
VL: DIQMTQSPSSLSASVGDRVTITCRASQGINNYLAWFQQKPGKAPKSLIYATSSLQSGVPSKFSGSGSGTDFTLTISSLQPEDFATYYCQQYNSYPLTFGGGTKVEIK
% Activation at 500 nM antibody or Apelin-antibody fusion, PathHunter beta-Arrestin assay [4]: 44%
EC50 [M], PathHunter beta-Arrestin assay [4]: 9.7e-10 M

B11: H4H9093P-APN11-(G4S)3 (antibody, V domains shown)
VH: EVQLVESGGGLVKPGGSLRLSCAASGITFSNAWMSWVRQAPGKGLEWVGRFKGKADGGTVDYAAPVKGRFTISRDDSKNTLYLQMNSLKNEDTAVYYCTTGRITMVRGVLGYWGQGTLVTVSS
VL: not shown
EC50 [M] (7.5 uM Forskolin), CRE-luc [1]: 1.6e-10 M
% Activation at 500 nM antibody or Apelin-antibody fusion, PathHunter beta-Arrestin assay [4]: 64%
EC50 [M], PathHunter beta-Arrestin assay [4]: 5.8e-09 M

Binder: PPRLSHKGPMPF [Apelin-11]
EC50 (M), CRE assay (5 uM forskolin), HEK293/CRE-luc/hAPLNR [5]: 4.38e-10 M

Binder: PPRLSHKGPM [Apelin67-75]
EC50 (M), CRE assay (5 uM forskolin), HEK293/CRE-luc/hAPLNR [5]: 3.74e-07 M

Binder: PPRLSHKGPMP [Apelin67-76]
EC50 (M), CRE assay (5 uM forskolin), HEK293/CRE-luc/hAPLNR [5]: 1.14e-13 M

Binder: PRPRLSHKGPM [Apelin66-75]
EC50 (M), CRE assay (5 uM forskolin), HEK293/CRE-luc/hAPLNR [5]: 2.17e-12 M

Continued, values first:

EC50 [M] (7.5 uM Forskolin), CRE-luc [1]: 5.8e-09 M
B1: H4H9093P-APNV5-11-(G4S)3 (antibody)
VH: GKPIPNPLLGLDSTQRPRLSHKGPMGGGGSGGGGSGGGGSEVQLVESGGGLVKPGGSLRLSCAASGITFSNAWMSWVRQAPGKGLEWVGRFKGKADGGTVDYAAPVKGRFTISRDDSKNTLYLQMNSLKNEDTAVYYCTTGRITMVRGVLGYWGQGTLVTVSS
VL: not shown

% Activation at 500 nM mAb (at 7.5 uM Forskolin), CRE-luc [2]: 69%
% Inhibition at 100 nM antibody, in the presence of 100 pM Apelin (at 5 uM Forskolin), CRE-luc [3]: 28%
IC50 [M], in the presence of 100 pM Apelin (at 5 uM Forskolin), CRE-luc [3]: 3.5e-09 M
B6: H2aM9225N (antibody, mouse IgG2a, V domains shown)
VH: EVQLEESGGGLVQPGGSLRLSCAASGFTFTSFWMSWVRQVPGKGLQWVANIKQDGTEKYYVDSVKGRFTISRDNAKNSLYLQMNSLRAEDTAVYYCARERFGYSLFDKGVRYYYGMDVWGQGTSVTVSS
VL: DIQMTQSPSSLSASVGDRVTITCRASQGIRNDLGWYQQKPGKAPKRLIYAASSLQSGVPSRFSGSGSGTEFTLTISGLQPEDFATYYCLQHNSYPRTFGQGTKVEIK

% Activation at 500 nM mAb (at 7.5 uM Forskolin), CRE-luc [2]: 67%
% Inhibition at 100 nM antibody, in the presence of 100 pM Apelin (at 5 uM Forskolin), CRE-luc [3]: 29%
IC50 [M], in the presence of 100 pM Apelin (at 5 uM Forskolin), CRE-luc [3]: 3.6e-09 M
B7: H2aM9224N (antibody, mouse IgG2a, V domains shown)
VH: EVQLEESGGGLVQPGGSLRLSCAASGFTFTSFWMSWVRQVPGKGLQWVANIKQDGTEKYYVDSVKGRFTISRDNAKNSLYLQMNSLRAEDTAVYYCARERFGYSLFDKGVRYYYGMDVWGQGTSVTVSS
VL: DIQMTQSPSSLSASVGDRVTITCRASQGIRNDLGWYQQKPGKAPKRLIYAASSLQSGVPSRFSGSGSGTEFTLTISGLQPEDFATYYCLQHNSYPRTFGQGTKVEIK

% Activation at 500 nM antibody or Apelin-antibody fusion, PathHunter beta-Arrestin assay [4]: 37%
EC50 [M], PathHunter beta-Arrestin assay [4]: 2.7e-09 M
B12: H4H9093P-APN11+S-(G4S)3 (antibody, V domains shown)
VH: EVQLVESGGGLVKPGGSLRLSCAASGITFSNAWMSWVRQAPGKGLEWVGRFKGKADGGTVDYAAPVKGRFTISRDDSKNTLYLQMNSLKNEDTAVYYCTTGRITMVRGVLGYWGQGTLVTVSS
VL: not shown

EC50 (M), CRE assay (5 uM forskolin), HEK293/CRE-luc/hAPLNR [5]: 5.19e-12 M
Binder: PRPRLSHKGPMP [Apelin66-76]

From patent US20190177410A1 (Regeneron, published 2019)
